Experimental data published in PMC6007841.

Biological target: human melanocortin 1 receptor (human) (UniProt Q01726)
Sequence (Q01726 whole entry): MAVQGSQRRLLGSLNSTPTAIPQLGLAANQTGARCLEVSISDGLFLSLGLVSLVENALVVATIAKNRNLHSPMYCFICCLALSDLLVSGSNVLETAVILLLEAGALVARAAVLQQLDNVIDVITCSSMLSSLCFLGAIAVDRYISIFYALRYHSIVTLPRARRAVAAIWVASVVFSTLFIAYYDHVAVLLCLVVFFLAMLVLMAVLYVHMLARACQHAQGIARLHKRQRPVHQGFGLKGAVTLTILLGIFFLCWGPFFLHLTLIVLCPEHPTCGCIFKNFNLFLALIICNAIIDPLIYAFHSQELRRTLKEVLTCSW

B1: mouse β-defensin 1, linear, reduced form (peptide)
chain: DQYKCLQHGGFCLRSSCPSNTKLQGTCKPDKPNCCKS
modifications: reduced, linear form
Question: B1 was tested. Which cAMP agonist EC50 (AlphaScreen cAMP assay, HEK293 cells expressing the receptor) did it give?
Answer: The cAMP agonist EC50 (AlphaScreen cAMP assay, HEK293 cells expressing the receptor) was 4.5 µM.
